Reference: paper PMC11582362
Numbering of substitutions follows the chain as printed.

T1: ADAR1-dsRBD3 (dsRBD3-short) (Homo sapiens, UniProt P55265 716-797)
T1 sequence: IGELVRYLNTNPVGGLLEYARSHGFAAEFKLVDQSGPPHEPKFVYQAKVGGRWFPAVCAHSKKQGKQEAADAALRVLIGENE

T2: ADAR1-dsRBD3 interface mutant (monomeric) (Homo sapiens, UniProt P55265 708-801, V747A;D748Q;W768V;C773S)
T2 sequence: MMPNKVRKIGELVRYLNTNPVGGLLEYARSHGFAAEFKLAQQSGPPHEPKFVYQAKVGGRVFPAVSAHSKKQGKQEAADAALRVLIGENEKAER

T3: ADAR1-dsRBD3 wild-type (dsRBD3-mid) (Homo sapiens, UniProt P55265 708-801)
T3 sequence: T2 sequence with A40V, Q41D, V61W, S66C

B1: 13-nt self-complementary RNA (dsRNA)
RNA 1: CGAAGCCUUCGCG
RNA 2: CGAAGCCUUCGCG
B2: 24 bp dsRNA duplex (dsRNA)
RNA 1: GGGAUCAAUAUGCUAAGCGAUCCC
RNA 2: GGGAUCGCUUAGCAUAUUGAUCCC

How the values were obtained:
[1] = target: T1, ADAR1-dsRBD3 (dsRBD3-short); experiment: X-ray crystallography; 2.8 A; crystals from 50 mM Na cacodylate pH 6.0, 5% PEG 4000, 30 mM CaCl2, 230 mM KCl; ITC: 25 mM Na-phosphate pH 7.0, 100 mM NaCl, 2 mM 2-mercaptoethanol, 25 °C; 2.25 uM dsRNA in cell, 80 uM protein in syringe; settings: protein: recombinant; tags: His6 removed by TEV (residual residues remain); chain copies: 2; self-duplex of 2 copies, 11 bp, 3' overhang 2 nt (CG) on each strand; overhangs pair to form a continuous pseudo-A-form helix; 3 strands per asymmetric unit
[2] = target: T2, ADAR1-dsRBD3 interface mutant …; experiment: ITC; N = 3.60 ± 0.36; ITC: 25 mM Na-phosphate pH 7.0, 100 mM NaCl, 2 mM 2-mercaptoethanol, 25 °C; 2.25 uM dsRNA in cell, 80 uM protein in syringe; settings: protein: recombinant; tags: N-terminal His6 (uncleaved); blunt
[3] = target: T3, ADAR1-dsRBD3 wild-type (dsRBD3-mid); experiment: ITC; N = 4.15 ± 0.42; source data sheet gives 123 nM; ITC: 25 mM Na-phosphate pH 7.0, 100 mM NaCl, 2 mM 2-mercaptoethanol, 25 °C; 2.25 uM dsRNA in cell, 80 uM protein in syringe; settings: protein: recombinant; tags: N-terminal His6 (uncleaved); chain copies: 2; blunt

Row | Binder | binding result [1] | Kd [2] [nM] | Kd [3] [nM]
1 | B1 | binds |  | 
2 | B2 |  | 410 ± 65 | 125 ± 25
